The data set deals with Sox9 (UniProt Q04887 1-507). Briefly: EMSA.
Chain of Sox9 (Q04887 whole entry): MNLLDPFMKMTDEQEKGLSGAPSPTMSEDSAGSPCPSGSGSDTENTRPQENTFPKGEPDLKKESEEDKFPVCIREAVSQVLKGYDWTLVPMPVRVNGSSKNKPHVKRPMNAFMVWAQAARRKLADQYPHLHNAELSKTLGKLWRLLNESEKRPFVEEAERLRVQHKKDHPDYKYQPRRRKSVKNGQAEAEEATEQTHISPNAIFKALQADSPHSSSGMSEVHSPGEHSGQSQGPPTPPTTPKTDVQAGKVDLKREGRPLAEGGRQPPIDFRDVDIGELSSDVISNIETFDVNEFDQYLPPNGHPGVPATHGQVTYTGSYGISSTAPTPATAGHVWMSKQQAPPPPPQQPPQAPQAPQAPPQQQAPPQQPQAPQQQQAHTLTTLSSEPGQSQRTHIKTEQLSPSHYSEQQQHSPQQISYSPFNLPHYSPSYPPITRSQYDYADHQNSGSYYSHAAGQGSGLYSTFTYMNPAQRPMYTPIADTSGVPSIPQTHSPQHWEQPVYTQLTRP

B1: Col2a1 enhancer probe (Sox9-binding site) (dsDNA)
DNA 1: GCGCTTGAGAAAAGCCCCATTCATGAGAGGC
DNA 2: GCCTCTCATGAATGGGGCTTTTCTCAAGCGC
As for B1, the binding result is given as “binds”.

Source of the values: publication PMC2674534.
